Laboratory results published in patent publication US20150344570A1 (published 2015).

B1: GpH7-A5/GpH7-B3 variant G236_06M/GpL16-k0 (antibody, human IgG1, kappa)
heavy 1: not shown
heavy 2: not shown
light: DIVMTQSPLSLPVTPGEPASISCQASESLVHSNRNTYLHWYLQKPGQSPQLLIYKVSNRFSGVPDRFSGSGSGTDFTLKISRVEAEDVGVYYCSQNTHVPPTFGQGTKVEIERTVAAPSVFIFPPSDEQLKSGTASVVCLLNNFYPREAKVQWKVDNALQSGNSQESVTEQDSKDSTYSLSSTLTLSKADYEKHKVYACEVTHQGLSSPVTKSFNRGEC
notes: Heterodimerized anti-glypican-3 IgG1; mutation only in the GpH7-B3 H chain; also called He Ab
B2: GpH7-A5/GpH7-B3 variant P238_03V/GpL16-k0 (antibody, human IgG1, kappa)
heavy 1: not shown
heavy 2: not shown
light: B1 light
notes: Heterodimerized anti-glypican-3 IgG1; the mutation is in the GpH7-B3 chain only; also called He Ab
B3: GpH7-A5/GpH7-B3 variant G236_08L/GpL16-k0 (antibody, human IgG1, kappa)
heavy 1: not shown
heavy 2: not shown
light: B1 light
notes: as for B1
B4: GpH7-A5/GpH7-B3 variant G236_19Q/GpL16-k0 (antibody, human IgG1, kappa)
heavy 1: not shown
heavy 2: not shown
light: B1 light
notes: as for B1
B5: GpH7-A5/GpH7-B3 variant S239_06M/GpL16-k0 (antibody, human IgG1, kappa)
heavy 1: not shown
heavy 2: not shown
light: B1 light
notes: as for B2
B6: GpH7-A5/GpH7-B3 variant G236_12R/GpL16-k0 (antibody, human IgG1, kappa)
heavy 1: not shown
heavy 2: not shown
light: B1 light
notes: as for B1
B7: GpH7-A5/GpH7-B3 variant D265_01G/GpL16-k0 (antibody, human IgG1, kappa)
heavy 1: not shown
heavy 2: not shown
light: B1 light
notes: as for B2
B8: GpH7-A5/GpH7-B3 variant P238_14T/GpL16-k0 (antibody, human IgG1, kappa)
heavy 1: not shown
heavy 2: not shown
light: B1 light
notes: as for B2
B9: GpH7-A5/GpH7-B3 variant P238_06M/GpL16-k0 (antibody, human IgG1, kappa)
heavy 1: not shown
heavy 2: not shown
light: B1 light
notes: as for B2
B10: GpH7-A5/GpH7-B3 variant P238_09D/GpL16-k0 (antibody, human IgG1, kappa)
heavy 1: not shown
heavy 2: not shown
light: B1 light
notes: as for B2
B11: GpH7-A5/GpH7-B3 variant P238_12R/GpL16-k0 (antibody, human IgG1, kappa)
heavy 1: not shown
heavy 2: not shown
light: B1 light
notes: as for B2
B12: GpH7-A5/GpH7-B3 variant G236_07I/GpL16-k0 (antibody, human IgG1, kappa)
heavy 1: not shown
heavy 2: not shown
light: B1 light
notes: as for B1
B13: GpH7-A5/GpH7-B3 variant S239_19Q/GpL16-k0 (antibody, human IgG1, kappa)
heavy 1: not shown
heavy 2: not shown
light: B1 light
notes: as for B2
B14: GpH7-A5/GpH7-B3 variant S239_05P/GpL16-k0 (antibody, human IgG1, kappa)
heavy 1: not shown
heavy 2: not shown
light: B1 light
notes: as for B2
B15: GpH7-A5/GpH7-B3 variant S239_11K/GpL16-k0 (antibody, human IgG1, kappa)
heavy 1: not shown
heavy 2: not shown
light: B1 light
notes: as for B2
B16: GpH7-A5/GpH7-B3 variant P238_13S/GpL16-k0 (antibody, human IgG1, kappa)
heavy 1: not shown
heavy 2: not shown
light: B1 light
notes: as for B2
B17: GpH7-A5/GpH7-B3 variant G236_16H/GpL16-k0 (antibody, human IgG1, kappa)
heavy 1: not shown
heavy 2: not shown
light: B1 light
notes: as for B1
B18: GpH7-A5/GpH7-B3 variant P238_10E/GpL16-k0 (antibody, human IgG1, kappa)
heavy 1: not shown
heavy 2: not shown
light: B1 light
notes: as for B2
B19: GpH7-A5/GpH7-B3 variant P238_11K/GpL16-k0 (antibody, human IgG1, kappa)
heavy 1: not shown
heavy 2: not shown
light: B1 light
notes: as for B2

Experiments:
[1] = biological target: T1, FcγRIa extracellular domain with C-terminal His tag (human, UniProt P12314 16-292); assay: SPR; He/Con_1a divided by He/Con_2b (FcγRIa against FcγRIIb)
T1 construct: extracellular domain; also called FcgRI; CD64; not shown: His tag at the C terminus
T1 sequence (P12314 16-292): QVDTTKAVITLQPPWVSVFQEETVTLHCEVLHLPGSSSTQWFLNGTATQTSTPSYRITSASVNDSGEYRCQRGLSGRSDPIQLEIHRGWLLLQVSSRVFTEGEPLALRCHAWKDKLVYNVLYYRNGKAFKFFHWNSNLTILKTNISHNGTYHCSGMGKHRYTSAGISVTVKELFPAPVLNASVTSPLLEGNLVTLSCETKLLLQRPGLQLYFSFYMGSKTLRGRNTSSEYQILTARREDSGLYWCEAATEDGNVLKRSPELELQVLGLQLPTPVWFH

[2] = biological target: T2, FcγRIIb extracellular domain with C-terminal His tag (human, UniProt P31994 43-217); assay: SPR (Biacore), antibody captured, FcγR analyte; relative to GpH7-A5/GpH7-B3/GpL16-k0 = 100
T2 construct: extracellular domain; also called FcgRIIb; CD32B; not shown: His tag at the C terminus
T2 sequence (looked up): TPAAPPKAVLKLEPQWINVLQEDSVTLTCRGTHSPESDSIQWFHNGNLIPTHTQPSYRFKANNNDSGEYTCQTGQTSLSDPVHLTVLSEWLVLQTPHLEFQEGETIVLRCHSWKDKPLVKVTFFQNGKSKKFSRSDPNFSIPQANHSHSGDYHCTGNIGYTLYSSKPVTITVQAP

[3] = biological target: T1, FcγRIa extracellular domain with …; assay: as above
FcγRIIIa [4] = biological target: T3, FcγRIIIa (human, UniProt P08637 17-208); assay: SPR; He/Con_3a (FcγRIIIa) divided by He/Con_2b (FcγRIIb)
T3 construct: extracellular domain; Soluble extracellular domain with a C-terminal His tag; also called FcgRIIIa; 3a; not shown: His tag attached to the C terminus
T3 sequence (P08637 17-208): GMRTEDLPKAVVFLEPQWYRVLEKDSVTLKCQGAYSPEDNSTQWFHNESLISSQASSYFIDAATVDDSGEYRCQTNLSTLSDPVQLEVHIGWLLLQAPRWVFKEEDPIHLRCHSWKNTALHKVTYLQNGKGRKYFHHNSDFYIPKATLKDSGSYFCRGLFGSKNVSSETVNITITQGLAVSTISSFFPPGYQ

FcγRIIIa [5] = biological target: T3, FcγRIIIa; assay: SPR (Biacore), antibody captured on chip, FcγR as analyte
FcγRIIb = biological target: T4, FcγRIIb (human, UniProt P31994 43-217); assay: as above
T4 construct: extracellular domain; Soluble extracellular domain with a C-terminal His tag, expressed in FreeStyle293 cells; also called FcgRIIb; 2b; not shown: His tag attached to the C terminus
T4 sequence (looked up): T2 sequence (looked up)

Row | Binder | He_1a/2b (Ia/IIb) [1] | He/Con_2b [2] | He/Con_1a [3] | He_3a/2b (IIIa/IIb) (FcγRIIIa [4]) | He/Con_3a (FcγRIIIa [5]) | He/Con_2b (FcγRIIb)
1 | B1 | 2.13 ratio | 45.5 % of HeCon Ab | 96.7 % of HeCon Ab |  |  | 
2 | B2 |  |  |  | 0.36 ratio | 43.8 relative binding, GpH7-A5/GpH7-B3/GpL16-k0 = 100 | 120 relative binding, GpH7-A5/GpH7-B3/GpL16-k0 = 100
3 | B3 | 2.97 ratio | 26.8 % of HeCon Ab | 79.6 % of HeCon Ab |  |  | 
4 | B4 | 1.98 ratio | 46.6 % of HeCon Ab | 92.1 % of HeCon Ab |  |  | 
5 | B5 |  |  |  | 0.78 ratio | 78.2 relative binding, GpH7-A5/GpH7-B3/GpL16-k0 = 100 | 101 relative binding, GpH7-A5/GpH7-B3/GpL16-k0 = 100
6 | B6 | 9.3 ratio | 6.8 % of HeCon Ab | 63.1 % of HeCon Ab |  |  | 
7 | B7 |  |  |  | 0.28 ratio | 4.5 relative binding, GpH7-A5/GpH7-B3/GpL16-k0 = 100 | 16.1 relative binding, GpH7-A5/GpH7-B3/GpL16-k0 = 100
8 | B8 |  |  |  | 0.55 ratio | 28 relative binding, GpH7-A5/GpH7-B3/GpL16-k0 = 100 | 50.7 relative binding, GpH7-A5/GpH7-B3/GpL16-k0 = 100
9 | B9 |  |  |  | 0.18 ratio | 30.5 relative binding, GpH7-A5/GpH7-B3/GpL16-k0 = 100 | 174 relative binding, GpH7-A5/GpH7-B3/GpL16-k0 = 100
10 | B10 |  |  |  | 0.48 ratio | 106 relative binding, GpH7-A5/GpH7-B3/GpL16-k0 = 100 | 221 relative binding, GpH7-A5/GpH7-B3/GpL16-k0 = 100
11 | B11 |  |  |  | 0.24 ratio | 12.2 relative binding, GpH7-A5/GpH7-B3/GpL16-k0 = 100 | 51.4 relative binding, GpH7-A5/GpH7-B3/GpL16-k0 = 100
12 | B12 | 2.82 ratio | 31 % of HeCon Ab | 87.5 % of HeCon Ab |  |  | 
13 | B13 |  |  |  | 0.66 ratio | 56.9 relative binding, GpH7-A5/GpH7-B3/GpL16-k0 = 100 | 86.1 relative binding, GpH7-A5/GpH7-B3/GpL16-k0 = 100
14 | B14 |  |  |  | 0.15 ratio | 14.9 relative binding, GpH7-A5/GpH7-B3/GpL16-k0 = 100 | 102 relative binding, GpH7-A5/GpH7-B3/GpL16-k0 = 100
15 | B15 |  |  |  | 0.48 ratio | 11.9 relative binding, GpH7-A5/GpH7-B3/GpL16-k0 = 100 | 24.7 relative binding, GpH7-A5/GpH7-B3/GpL16-k0 = 100
16 | B16 |  |  |  | 0.64 ratio | 44.9 relative binding, GpH7-A5/GpH7-B3/GpL16-k0 = 100 | 70.4 relative binding, GpH7-A5/GpH7-B3/GpL16-k0 = 100
17 | B17 | 2.99 ratio | 27.9 % of HeCon Ab | 83.5 % of HeCon Ab |  |  | 
18 | B18 |  |  |  | 0.45 ratio | 105 relative binding, GpH7-A5/GpH7-B3/GpL16-k0 = 100 | 232 relative binding, GpH7-A5/GpH7-B3/GpL16-k0 = 100
19 | B19 |  |  |  | 0.57 ratio | 10.4 relative binding, GpH7-A5/GpH7-B3/GpL16-k0 = 100 | 18.1 relative binding, GpH7-A5/GpH7-B3/GpL16-k0 = 100
